From US12202861B2, “Inducible, tunable, and multiplex human gene regulation using CRISPR-Cpf1” (The General Hospital Corporation, priority 2017, dated 2025)

How the values were obtained:
Type in all cases: cell-based, human
NPY1R = experiment: RT-qPCR activation of endogenous NPY1R gene promoter in HEK293 cells; conditions: single crRNA
Procedure: (§1) FIGS. 1A-1E. Targeted human endogenous gene regulation using individual crRNAs with dLbCpf1-based activators • (A) Schematic showing direct dLbCpf1-VPR and dLbCpf-p65 activator fusion proteins. • (B) Activities of dLbCpf1-p65 or dLbCpf1-VPR using single crRNAs at three endogenous human genes (HBB, AR, and NPY1R) in human HEK293 cells. Relative activation of the indicated gene promoters was measured by RT-qPCR. Three separate individual crRNAs were targeted within promoter sequence 1 kb upstream of the transcription start site for each gene. Relative mRNA expression is calculated by comparison to the control sample in which no crRNA is expressed. (C) Analysis of various crRNAs targeted to the human CD5 and CD22 promoters. 32 crRNAs (16 for each gene) were designed to target sites located within promoter sequences 1 kb upstream or 500 bps downstream of the TSS of each gene. Repetitive sequences were not targeted. After 72 hours post-transfection, cells were stained with fluorescently labeled antibody for CD5 or CD22 protein and fluorescent-positive cells were quantified by flow cytometry. Error bars represent s.e.m. for three biological replicates. […] (D) Schematic illustrating drug-inducible bi-partite dLbCpf1-based activator fusion proteins. dLbCpf1 is fused to one to four DmrA domains and VPR or p65 is fused to a DmrC domain. Because DmrA and DmrC interact only in the presence of an A/C-heterodimerizer drug (red diamond), the bi-partite activator is only reconstituted in the presence of the drug. (E) Activities of drug-inducible bi-partite dLbCpf1-based activators using single crRNAs at three endogenous human genes (HBB, AR, and NPY1R) in human HEK293 cells. Relative activation of the indicated gene promoters was measured by RT-qPCR. […] Data shown in (B) and (E) represent three biological independent replicates and error bars indicate standard deviation (SD) of three technical replicates.
(§2) (A) Schematic of an expression cassette designed to express multiple gRNAs encoded on a single transcript. The arrows indicate cleavage sites being processed by the RNase activity of dLbCpf1. (B) Schematic illustrating multiplex expression of three crRNAs each targeted to a different endogenous gene promoter in a single cell. (C) Simultaneous activation of three endogenous human genes using crRNAs expressed from a multiplex transcript or from individual transcripts with dLbCpf1-VPR direct fusions (left panel), dLbCpf1-DmrA(×4) and DmrC-VPR fusions (middle panel), and dLbCpf1-DmrA(×4) and DmrC-p65 fusions (right panel). Transcripts were measured in HEK293 cells using RT-qPCR with relative mRNA expression calculated by comparison to the control sample in which no crRNA is expressed. (D) Activities of MST crRNA with different dLbCpf1-based activators in human U20S cells. Graphs showing activation of three endogenous human genes with dLbCpf1-VPR direct fusions, dLbCpf1-DmrA(×4) and DmrC-p65 fusions, and dLbCpf1-DmrA(×4) and DmrC-VPR fusions and crRNAs expressed from a multiplex single transcript (MST) or from transcripts encoding a single crRNA. RNA expression was measured by RT-qPCR and relative expression shown was calculated by comparison to a control sample in which no crRNA is expressed. (E) Schematic illustrating multiplex expression of three crRNAs each targeted to the same endogenous gene promoter in the same cell. (F) Activities of direct dLbCpf1-p65 or dLbCpf1-VPR fusions with sets of three crRNAs expressed from a multiplex transcript or from individual transcripts on the HBB, AR, or NPY1R endogenous gene promoters. Transcripts were measured in HEK293 cells using RT-qPCR with relative mRNA expression calculated by comparison to the control sample in which no crRNA is expressed. (G) Activities of dLbCpf1-DmrA(×4) and DmrC-VPR fusions or with dLbCpf1-DmrA(×4) and DmrC-p65 fusions with sets of three crRNAs expressed from a multiplex transcript or from individual transcripts on the HBB, AR, or NPY1R endogenous gene promoters. […]

HBB [1] = experiment: RT-qPCR activation of endogenous HBB gene promoter in HEK293 cells; conditions: single crRNA
Procedure: as §1, §2

AR = experiment: RT-qPCR activation of endogenous AR gene promoter in HEK293 cells; conditions: single crRNA
Procedure: as §1
(A) Schematic of an expression cassette designed to express multiple gRNAs encoded on a single transcript. The arrows indicate cleavage sites being processed by the RNase activity of dLbCpf1. (B) Schematic illustrating multiplex expression of three crRNAs each targeted to a different endogenous gene promoter in a single cell. […] Transcripts were measured in HEK293 cells using RT-qPCR with relative mRNA expression calculated by comparison to the control sample in which no crRNA is expressed. […] RNA expression was measured by RT-qPCR and relative expression shown was calculated by comparison to a control sample in which no crRNA is expressed. […] Transcripts were measured in HEK293 cells using RT-qPCR with relative mRNA expression calculated by comparison to the control sample in which no crRNA is expressed. […]

HBB [2] = experiment: RT-qPCR activation of HBB in U2OS cells; conditions: MST crRNAs and single crRNAs
Text: (A) Schematic of an expression cassette designed to express multiple gRNAs encoded on a single transcript. The arrows indicate cleavage sites being processed by the RNase activity of dLbCpf1. (B) Schematic illustrating multiplex expression of three crRNAs each targeted to a different endogenous gene promoter in a single cell. (C) Simultaneous activation of three endogenous human genes using crRNAs expressed from a multiplex transcript or from individual transcripts with dLbCpf1-VPR direct fusions (left panel), dLbCpf1-DmrA(×4) and DmrC-VPR fusions (middle panel), and dLbCpf1-DmrA(×4) and DmrC-p65 fusions (right panel). Transcripts were measured in HEK293 cells using RT-qPCR with relative mRNA expression calculated by comparison to the control sample in which no crRNA is expressed. […] RNA expression was measured by RT-qPCR and relative expression shown was calculated by comparison to a control sample in which no crRNA is expressed. […] Transcripts were measured in HEK293 cells using RT-qPCR with relative mRNA expression calculated by comparison to the control sample in which no crRNA is expressed. […] Transcripts were measured in HEK293 cells using RT-qPCR with relative mRNA expression calculated by comparison to the control sample in which no crRNA is expressed. […] Cells were collected at various time points and relative mRNA expression levels were measured by RT-qPCR compared to a negative control. […]

[3] = bi-partite with dLbCpf1-DmrA fusions
[4] = bi-partite with dLbCpf1-DmrA fusions, A/C heterodimerizer
[5] = bi-partite, with dLbCpf1 fusions harboring two, three or four DmrA domains

B1: DmrC-p65: CAG-DmrC-NLS-FLAG-P65; DmrC dimerization domain fused to p65 activation domain (SEQ ID NO: 50) (protein)
chain: MGSRILWHEMWHEGLEEASRLYFGERNVKGMFEVLEPLHAMMERGPQTLKETSFNQAYGRDLMEAQEWCRKYMKSGNVKDLLQAWDLYYHVFRRISKGGGSPKKKRKVSSDYKDHDGDYKDHDIDYKDDDDKAAGGGGSGSEASGSGRADALDDFDLDMLGSDALDDFDLDMLGSDALDDFDLDMLGSDALDDFDLDMLINSRSSGSPKKKRKVGSQYLPDTDDRHRIEEKRKRTYETFKSIMKKSPFSGPTDPRPPPRRIAVPSRSSASVPKPAPQPYPFTSSLSTINYDEFPTMVFPSGQISQASALAPAPPQVLPQAPAPAPAPAMVSALAQAPAPVPVLAPGPPQAVAPPAPKPTQAGEGTLSEALLQLQFDDEDLGALLGNSTDPAVFTDLASVDNSEFQQLLNQGIPVAPHTTEPMLMEYPEAITRLVTGAQRPPDPAPAPLGAPGLPNGLLSGDEDFSSIADMDFSALLGSGSGSRDSREGMFLPKPEAGSAISDVFEGREVCQPKRIRPFHPPGSPWANRPLPASLAPTPTGPVHEPVGSLTPAPVPQPLDPAPAVTPEASHLLEDPDEETSQAVKALREMADTVIPQKEEAAICGQMDLSHPPPRGHLDELTTTLESMTEDLNLDSPLTPELNEILDTFLNDECLLHAMHISTGLSIFDTSLF
modifications: misc_feature 1..2016 MMW948: CAG-DmrC-NLS-FLAG-VPR
NPY1R; [3]
  dependence of maximal activation on A/C heterodimerizer drug: dependent on the presence of A/C heterodimerizer drug
  level of activation somewhat less than that obtained with DmrC-VPR: ~30%
NPY1R; [4]
  fold activation of transcription: ~10 fold
NPY1R; [5]
  activation of transcription: could robustly activate transcription
HBB [1]; [3]
  dependence of maximal activation on A/C heterodimerizer drug: dependent on the presence of A/C heterodimerizer drug
  level of activation somewhat less than that obtained with DmrC-VPR: ~50%
HBB [1]; [4]
  fold activation of transcription: ~20 fold
HBB [1]; [5]
  activation of transcription: could robustly activate transcription
AR; [3]
  dependence of maximal activation on A/C heterodimerizer drug: dependent on the presence of A/C heterodimerizer drug
AR; [4]
  fold activation of transcription: ~25 fold
AR; [5]
  activation of transcription: could robustly activate transcription
HBB [2]
  gene activation (relative RNA expression): even greater than in HEK293s
